Measurements from CN117003876A (KAIKA BIO TECH SHANGHAI CO LTD, dated 2023).

B1: 1B5B10 (antibody, mouse IgG2b, kappa, V domains shown)
VH: DVQLQESGPGLVKPSQSLSLTCTVTGYSITSDYAWNWIRQFPGNKLEWMGYIDNSGSTNYNPSLRSRISITRDTSKNQFFLQLNSVTTEDTATYYCALNDYHYVMDYWGQGTSVTVSS
VL: DIQMTQSPASLSASVGETVTITCRPSENIYSYLAWYQQKQGKSPQLLVYSAKTLAEGVPLRFSGSYSGTHFSLRINSLQPEDFGSYYCQHHYGSPLTFGSGTKLELKR
notes: also called 1B5B10重组抗体; 鼠单抗1B5B10
B2: CXCR4膜蛋白 on Hela细胞 (receptor, UniProt P61073 1-352, looked up)
chain: MEGISIYTSDNYTEEMGSGDYDSMKEPCFREENANFNKIFLPTIYSIIFLTGIVGNGLVILVMGYQKKLRSMTDKYRLHLSVADLLFVITLPFWAVDAVANWYFGNFLCKAVHVIYTVNLYSSVLILAFISLDRYLAIVHATNSQRPRKLLAEKVVYVGVWIPALLLTIPDFIFANVSEADDRYICDRFYPNDLWVVVFQFQHIMVGLILPGIVILSCYCIIISKLSHSKGHQKRKALKTTVILILAFFACWLPYYIGISIDSFILLEIIKQGCEFENTVHKWISITEALAFFHCCLNPILYAFLGAKFKTSAQHALTSVSRGSSLKILSKGKRGGHSSVSTESESSSFHSS
notes: whole, on cells; also called Hela细胞过表达CXCR4膜蛋白; Hela细胞膜蛋白CXCR4

Assays:
CXCR4膜蛋白 on Hela细胞 = molecular target: B2; test: FACS on Hela cells, recombinant antibody
[1] = molecular target: T1, 生物素标记SDF-1a配体(SKU# RBP48061, Reprokine) (UniProt P48061-2 22-89, biotin-labelled (site not stated)); test: FACS on Hela cells, 0.1uM biotin-SDF-1a, SA-FITC
T1 construct: Bought biotinylated ligand; also called SDF-1α; CXCL12

B1
binding result (CXCR4膜蛋白 on Hela细胞): binds

B2
binding result [1]: binds
